The target of assay [1] is RAD51 (UniProt Q08297). The assay can be described thus: co-IP of RAD51-GFP, RAD51AP1-mCherry blotted. The note with it: reference: wild type, asynchronous cells; sites T305.
In assay [2] the target is RAD51 (UniProt Q08297). The assay can be described thus: co-IP of RAD51AP1-mCherry, RAD51-GFP blotted. The note with it: reference: wild type, asynchronous cells; sites T305.

As for RAD51AP1 (from UniProt Q8C551) T305A, the other: percent reduction vs wild type in the assay with RAD51 [1] amounted to 62%; in the assay with RAD51 [2], 90%.

(Values after publication PMC7605441.)
